Values quoted from earlier work, collected in article PMC8470622.
Values joined by “and” are separate entries in the source; they are usually repeats but may differ in a detail not shown here. Identical values can stand only once. Like-named read-outs stand apart in the source and are kept apart here.

Legend:
[1] = target: EGFR (low-affinity state) (Homo sapiens) (UniProt P00533); assay: radioligand
EGFR (Homo sapiens) [2] = target: EGFR (Homo sapiens) (UniProt P00533); assay: radioligand
[3] = target: EGFR (high-affinity state) (Homo sapiens) (UniProt P00533); assay: radioligand
EGFR (Homo sapiens) [4] = target: EGFR (Homo sapiens) (UniProt P00533)

Question: Which results are given for EGF (from UniProt P01133)?
Answer: Kd [1]: 2.85 nM; Kd (EGFR (Homo sapiens) [2]): 1.52 nM; Kd [3]: 1.06 nM; Kd (EGFR (Homo sapiens) [4]): 0.3 nM and 0.32 nM
